Measurements from publication PMC2838905.

Molecular target: Dictyostelium myosin II (bipolar filaments) (Dictyostelium discoideum) (UniProt P08799)

phosphorylation of MHC in a kinase assay (50 nM kinase, 1.0 μM myosin II), against the full-length kinase (% of the full-length kinase): 30
B1: GST-B-Δ-WD, MHCK-B truncation lacking only the WD-repeat domain (amino acids 1-450) (domain or fragment)
chain: MIFKVWFSYEDEEVELSELTNDTTVSAIRKILHEGKIFRFPYGTSQTDLQIGKMLPSGSGGGATADSKFEKFKARNTLADIQYKVGDTLYVRVKKSKPTNDSLLPTLNIAFLDGSERAIKWEYDPYTTTAQWTCTATLVKVEPVPFAEGAFRKAYHTLDLSKSGASGRYVSKIGKKPTPRPSYFEDVKMQMIAKKWADKYNSFKPPKKIEFLQSCVLEFVDRTSSDLICGAEPYVEGQYRKYNNNSGFVSNDERNTPQSFSHFTYEHSNHQLLIIDIQGVGDHYTDPQIHTYDGVGFGIGNLGQKGFEKFLDTHKCNAICQYLNLQSINPKSEKSDCGTVPRPDLIFPDTSERDNNNNNNNNNNNNNNNNNNNSNNNNNNNSSISKSLVEISSGSKERNDRDSPSRQLFVSNDGNTLNTNKERSKSKSIDLEKPEILINNKKKESINLET
